This passage reports Kd results from article PMC3315326.

The series concerns the target DNMT1 (UniProt P26358 1-1616). As to the kind of experiment: SPR. Background: SPR reads the build-up and loss of mass on a sensor chip optically.

DNMT1, sequence (P26358 whole entry): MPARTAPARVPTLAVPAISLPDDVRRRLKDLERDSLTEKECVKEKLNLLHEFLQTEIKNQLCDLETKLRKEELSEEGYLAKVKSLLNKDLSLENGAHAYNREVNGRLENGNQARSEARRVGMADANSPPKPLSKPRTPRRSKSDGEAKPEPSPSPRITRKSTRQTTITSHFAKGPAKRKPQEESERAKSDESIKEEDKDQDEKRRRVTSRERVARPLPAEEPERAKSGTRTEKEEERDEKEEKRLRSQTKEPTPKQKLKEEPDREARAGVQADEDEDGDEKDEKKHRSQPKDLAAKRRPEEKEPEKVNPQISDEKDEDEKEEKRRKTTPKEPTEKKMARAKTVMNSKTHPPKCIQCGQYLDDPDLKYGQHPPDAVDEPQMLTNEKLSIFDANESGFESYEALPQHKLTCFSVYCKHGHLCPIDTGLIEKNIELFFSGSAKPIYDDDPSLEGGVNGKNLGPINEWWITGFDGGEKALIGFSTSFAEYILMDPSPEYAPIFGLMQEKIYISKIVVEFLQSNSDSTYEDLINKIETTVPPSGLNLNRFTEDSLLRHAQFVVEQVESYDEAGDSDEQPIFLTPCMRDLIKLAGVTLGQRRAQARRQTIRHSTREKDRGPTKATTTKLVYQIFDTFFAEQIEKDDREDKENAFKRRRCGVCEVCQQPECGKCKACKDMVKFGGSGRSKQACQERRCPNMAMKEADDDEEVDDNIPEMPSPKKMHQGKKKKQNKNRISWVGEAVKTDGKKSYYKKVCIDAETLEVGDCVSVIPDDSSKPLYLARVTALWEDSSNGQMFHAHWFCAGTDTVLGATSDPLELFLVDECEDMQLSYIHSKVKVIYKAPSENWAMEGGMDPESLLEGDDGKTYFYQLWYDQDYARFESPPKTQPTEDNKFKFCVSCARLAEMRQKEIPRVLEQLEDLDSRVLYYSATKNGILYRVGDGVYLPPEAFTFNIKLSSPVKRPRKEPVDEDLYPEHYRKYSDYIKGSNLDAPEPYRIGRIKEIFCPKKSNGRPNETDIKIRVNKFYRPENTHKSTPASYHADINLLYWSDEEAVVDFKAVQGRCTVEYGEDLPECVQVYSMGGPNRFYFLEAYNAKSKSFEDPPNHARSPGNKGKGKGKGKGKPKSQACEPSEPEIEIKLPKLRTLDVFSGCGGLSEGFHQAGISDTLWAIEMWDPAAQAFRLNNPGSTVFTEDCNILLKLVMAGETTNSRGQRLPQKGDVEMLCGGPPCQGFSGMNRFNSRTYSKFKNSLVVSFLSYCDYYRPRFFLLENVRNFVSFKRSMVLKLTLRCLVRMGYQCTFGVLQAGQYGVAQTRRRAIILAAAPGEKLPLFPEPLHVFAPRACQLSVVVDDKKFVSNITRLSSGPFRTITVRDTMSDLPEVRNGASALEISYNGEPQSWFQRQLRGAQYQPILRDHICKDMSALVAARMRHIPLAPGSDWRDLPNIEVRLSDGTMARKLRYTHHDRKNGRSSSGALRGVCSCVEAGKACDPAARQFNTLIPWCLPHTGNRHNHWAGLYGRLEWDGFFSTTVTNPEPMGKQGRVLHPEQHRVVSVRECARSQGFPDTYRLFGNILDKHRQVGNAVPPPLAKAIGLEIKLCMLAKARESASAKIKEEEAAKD

B1: hemimethylated 30-bp oligo (D1subHMF/D1subUMF) (dsDNA)
DNA 1: GAAGCTGGGACTTCCGGCAGGAGAGTGCAA
DNA 2: TTGCACTCTCCTGCCGGAAGTCCCAGCTTC
modifications: 5-methylcytosine at position 15 of strand 1
As to B1, the Kd worked out at 1070 nM.

One may read the Kd as the constant that tells how readily two partners part at equilibrium. High values mean weaker binding, low ones tighter binding.
